# From article PMC9482650, “Quantitative fragmentomics allow affinity mapping of interactomes” (Nature Communications, 2022)
# T1: APBA1_1, Q02410
# T1 sequence (Q02410 651-752, limits assumed, looked up): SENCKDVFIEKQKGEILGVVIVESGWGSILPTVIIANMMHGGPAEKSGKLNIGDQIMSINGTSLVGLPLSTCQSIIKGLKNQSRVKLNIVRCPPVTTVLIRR
# T2: APBA1_2, Q02410
# T2 sequence (Q02410 742-832, limits assumed, looked up): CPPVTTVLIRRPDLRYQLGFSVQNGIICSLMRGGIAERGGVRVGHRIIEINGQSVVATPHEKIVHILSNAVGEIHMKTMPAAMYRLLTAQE
# T3: ARHGAP21, Q5T5U3
# T3 sequence (Q5T5U3 45-169, limits assumed, looked up): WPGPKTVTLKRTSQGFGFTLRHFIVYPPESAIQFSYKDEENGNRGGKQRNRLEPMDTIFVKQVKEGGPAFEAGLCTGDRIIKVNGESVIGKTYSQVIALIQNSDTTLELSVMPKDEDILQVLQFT
# T4: DLG3_3, Q92796
# T4 sequence (Q92796 374-475, limits assumed, looked up): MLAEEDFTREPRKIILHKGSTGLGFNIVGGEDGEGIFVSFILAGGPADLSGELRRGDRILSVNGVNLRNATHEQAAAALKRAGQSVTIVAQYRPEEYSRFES
# T5: GRIP1_7, Q9Y3R0
# T5 sequence (Q9Y3R0 999-1096, limits assumed, looked up): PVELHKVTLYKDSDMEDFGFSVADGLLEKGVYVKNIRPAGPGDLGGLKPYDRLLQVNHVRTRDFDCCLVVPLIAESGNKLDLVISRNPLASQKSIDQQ
# T6: HTRA4, P83105
# T6 sequence (P83105 378-476, limits assumed, looked up): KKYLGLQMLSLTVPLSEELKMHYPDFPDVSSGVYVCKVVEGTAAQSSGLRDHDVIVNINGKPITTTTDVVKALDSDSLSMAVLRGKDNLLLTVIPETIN
# T7: LIN7A, O14910
# T7 sequence (O14910 103-200, limits assumed, looked up): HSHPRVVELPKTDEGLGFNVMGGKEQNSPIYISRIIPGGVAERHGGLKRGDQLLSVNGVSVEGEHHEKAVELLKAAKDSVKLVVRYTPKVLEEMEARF
# T8: LNX2_2, Q8N448
# T8 sequence (Q8N448 334-432, limits assumed, looked up): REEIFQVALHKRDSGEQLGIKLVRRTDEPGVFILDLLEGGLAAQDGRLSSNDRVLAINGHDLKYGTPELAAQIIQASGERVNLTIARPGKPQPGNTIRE
# T9: MPP6, Q9NZW5
# T9 sequence (Q9NZW5 125-219, limits assumed, looked up): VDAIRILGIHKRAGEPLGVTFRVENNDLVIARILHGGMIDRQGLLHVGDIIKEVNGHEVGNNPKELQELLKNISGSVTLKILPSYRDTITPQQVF
# T10: RAPGEF6, Q8TEU7
# T10 sequence (Q8TEU7 525-625, limits assumed, looked up): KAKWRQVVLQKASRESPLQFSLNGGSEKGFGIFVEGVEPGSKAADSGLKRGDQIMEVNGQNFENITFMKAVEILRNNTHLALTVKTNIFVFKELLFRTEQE
# T11: SNTB1, Q13884
# T11 sequence (Q13884 107-205, limits assumed, looked up): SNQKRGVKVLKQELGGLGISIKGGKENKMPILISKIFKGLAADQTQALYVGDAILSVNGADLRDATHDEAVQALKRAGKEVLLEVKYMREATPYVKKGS
# T12: TJP3_3, O95049
# T12 sequence (O95049 375-456, limits assumed, looked up): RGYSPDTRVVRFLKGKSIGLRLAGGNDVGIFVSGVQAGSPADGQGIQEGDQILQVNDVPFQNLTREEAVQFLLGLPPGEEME
# Target: T1, APBA1_1, Q02410
# Assay: holdup assay
# Design: key: below the threshold = too weak to quantify, mostly under pKd 3.1 to 4
# Details: plain residues with an end cap or a label only (N-terminal biotin on a linker: ado-ado)
row,Binder,pKd
1,"QSPPNIYYKV [EFNB3, Q15768]",below the threshold
2,"DSATVRTYSC [PPFIA1, Q13136]",below the threshold

# Target: T2, APBA1_2, Q02410
# Assay: holdup assay
# Design: key: below the threshold = too weak to quantify, mostly under pKd 3.1 to 4
# Details: plain residues with an end cap or a label only (N-terminal biotin on a linker: ado-ado)
row,Binder,pKd
1,"QSPPNIYYKV [EFNB3, Q15768]",3.47
2,"DSATVRTYSC [PPFIA1, Q13136]",below the threshold

# Target: T3, ARHGAP21, Q5T5U3
# Assay: holdup assay
# Design: key: below the threshold = too weak to quantify, mostly under pKd 3.1 to 4
# Details: plain residues with an end cap or a label only (N-terminal biotin on a linker: ado-ado)
row,Binder,pKd
1,"QSPPNIYYKV [EFNB3, Q15768]",below the threshold
2,"DSATVRTYSC [PPFIA1, Q13136]",below the threshold

# Target: T4, DLG3_3, Q92796
# Assay: holdup assay
# Design: key: below the threshold = too weak to quantify, mostly under pKd 3.1 to 4
# Details: plain residues with an end cap or a label only (N-terminal biotin on a linker: ado-ado)
row,Binder,pKd
1,"QSPPNIYYKV [EFNB3, Q15768]",3.56
2,"DSATVRTYSC [PPFIA1, Q13136]",below the threshold

# Target: DLG4_1, P78352
# Sequence (P78352 62-152): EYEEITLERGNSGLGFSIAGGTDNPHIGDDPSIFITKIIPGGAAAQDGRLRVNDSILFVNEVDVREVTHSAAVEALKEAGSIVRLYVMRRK
# Assay: holdup assay
# Design: key: below the threshold = too weak to quantify, mostly under pKd 3.1 to 4
# Details: plain residues with an end cap or a label only (N-terminal biotin on a linker: ado-ado)
row,Binder,pKd
1,"QSPPNIYYKV [EFNB3, Q15768]",below the threshold
2,"DSATVRTYSC [PPFIA1, Q13136]",below the threshold

# Target: GRASP, Q7Z6J2
# Sequence (Q7Z6J2 96-193): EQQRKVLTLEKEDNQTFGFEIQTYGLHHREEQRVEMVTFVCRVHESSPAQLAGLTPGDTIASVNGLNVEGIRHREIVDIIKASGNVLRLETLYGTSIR
# Assay: holdup assay
# Design: key: below the threshold = too weak to quantify, mostly under pKd 3.1 to 4
# Details: plain residues with an end cap or a label only (N-terminal biotin on a linker: ado-ado)
row,Binder,pKd
1,"QSPPNIYYKV [EFNB3, Q15768]",3.57
2,"DSATVRTYSC [PPFIA1, Q13136]",4.31

# Target: GRID2IP_1, A4D2P6
# Sequence (A4D2P6 1-87): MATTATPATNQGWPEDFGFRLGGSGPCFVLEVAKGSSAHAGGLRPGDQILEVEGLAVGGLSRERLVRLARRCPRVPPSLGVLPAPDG
# Assay: holdup assay
# Design: key: below the threshold = too weak to quantify, mostly under pKd 3.1 to 4
# Details: plain residues with an end cap or a label only (N-terminal biotin on a linker: ado-ado)
row,Binder,pKd
1,"QSPPNIYYKV [EFNB3, Q15768]",below the threshold
2,"DSATVRTYSC [PPFIA1, Q13136]",below the threshold

# Target: T5, GRIP1_7, Q9Y3R0
# Assay: holdup assay
# Design: key: below the threshold = too weak to quantify, mostly under pKd 3.1 to 4
# Details: plain residues with an end cap or a label only (N-terminal biotin on a linker: ado-ado)
row,Binder,pKd
1,"QSPPNIYYKV [EFNB3, Q15768]",3.67
2,"DSATVRTYSC [PPFIA1, Q13136]",below the threshold

# Target: T6, HTRA4, P83105
# Assay: holdup assay
# Design: key: below the threshold = too weak to quantify, mostly under pKd 3.1 to 4
# Details: plain residues with an end cap or a label only (N-terminal biotin on a linker: ado-ado)
row,Binder,pKd
1,"QSPPNIYYKV [EFNB3, Q15768]",below the threshold
2,"DSATVRTYSC [PPFIA1, Q13136]",below the threshold

# Target: Inadl_2, Q8NI35
# Sequence (Q8NI35 238-335): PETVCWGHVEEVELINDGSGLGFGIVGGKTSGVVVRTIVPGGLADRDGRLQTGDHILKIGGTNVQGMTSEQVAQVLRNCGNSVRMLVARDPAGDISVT
# Assay: holdup assay
# Design: key: below the threshold = too weak to quantify, mostly under pKd 3.1 to 4
# Details: plain residues with an end cap or a label only (N-terminal biotin on a linker: ado-ado)
row,Binder,pKd
1,"QSPPNIYYKV [EFNB3, Q15768]",below the threshold
2,"DSATVRTYSC [PPFIA1, Q13136]",below the threshold

# Target: Inadl_9, Q8NI35
# Sequence (Q8NI35 1530-1615): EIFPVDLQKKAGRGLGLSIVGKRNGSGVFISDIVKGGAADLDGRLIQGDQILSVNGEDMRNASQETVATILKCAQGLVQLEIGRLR
# Assay: holdup assay
# Design: key: below the threshold = too weak to quantify, mostly under pKd 3.1 to 4
# Details: plain residues with an end cap or a label only (N-terminal biotin on a linker: ado-ado)
row,Binder,pKd
1,"QSPPNIYYKV [EFNB3, Q15768]",3.53
2,"DSATVRTYSC [PPFIA1, Q13136]",below the threshold

# Target: T7, LIN7A, O14910
# Assay: holdup assay
# Design: key: below the threshold = too weak to quantify, mostly under pKd 3.1 to 4
# Details: plain residues with an end cap or a label only (N-terminal biotin on a linker: ado-ado)
row,Binder,pKd
1,"QSPPNIYYKV [EFNB3, Q15768]",below the threshold
2,"DSATVRTYSC [PPFIA1, Q13136]",below the threshold

# Target: T8, LNX2_2, Q8N448
# Assay: holdup assay
# Design: key: below the threshold = too weak to quantify, mostly under pKd 3.1 to 4
# Details: plain residues with an end cap or a label only (N-terminal biotin on a linker: ado-ado)
row,Binder,pKd
1,"QSPPNIYYKV [EFNB3, Q15768]",4.27
2,"DSATVRTYSC [PPFIA1, Q13136]",4.02

# Target: MAGI1_1, Q96QZ7
# Sequence (Q96QZ7 1-106): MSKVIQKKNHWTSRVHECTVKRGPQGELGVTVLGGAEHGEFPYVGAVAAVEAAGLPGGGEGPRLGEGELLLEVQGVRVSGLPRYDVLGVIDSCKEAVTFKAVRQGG
# Assay: holdup assay
# Design: key: below the threshold = too weak to quantify, mostly under pKd 3.1 to 4
# Details: plain residues with an end cap or a label only (N-terminal biotin on a linker: ado-ado)
row,Binder,pKd
1,"QSPPNIYYKV [EFNB3, Q15768]",below the threshold
2,"DSATVRTYSC [PPFIA1, Q13136]",below the threshold

# Target: T9, MPP6, Q9NZW5
# Assay: holdup assay
# Design: key: below the threshold = too weak to quantify, mostly under pKd 3.1 to 4
# Details: plain residues with an end cap or a label only (N-terminal biotin on a linker: ado-ado)
row,Binder,pKd
1,"QSPPNIYYKV [EFNB3, Q15768]",below the threshold
2,"DSATVRTYSC [PPFIA1, Q13136]",below the threshold

# Target: NHERF2_2, Q15599
# Sequence (Q15599 142-238): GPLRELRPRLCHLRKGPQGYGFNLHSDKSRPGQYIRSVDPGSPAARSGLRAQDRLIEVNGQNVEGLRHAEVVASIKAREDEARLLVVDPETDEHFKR
# Assay: holdup assay
# Design: key: below the threshold = too weak to quantify, mostly under pKd 3.1 to 4
# Details: plain residues with an end cap or a label only (N-terminal biotin on a linker: ado-ado)
row,Binder,pKd
1,"QSPPNIYYKV [EFNB3, Q15768]",3.56
2,"DSATVRTYSC [PPFIA1, Q13136]",below the threshold

# Target: NHERF4_1, Q86UT5-2
# Sequence (Q86UT5 other isoform, or with tags, fused parts or gaps): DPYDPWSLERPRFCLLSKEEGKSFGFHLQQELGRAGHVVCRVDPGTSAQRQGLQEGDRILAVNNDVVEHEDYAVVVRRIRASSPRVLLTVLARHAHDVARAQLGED
# Assay: holdup assay
# Design: key: below the threshold = too weak to quantify, mostly under pKd 3.1 to 4
# Details: plain residues with an end cap or a label only (N-terminal biotin on a linker: ado-ado)
row,Binder,pKd
1,"QSPPNIYYKV [EFNB3, Q15768]",below the threshold
2,"DSATVRTYSC [PPFIA1, Q13136]",3.98

# Target: NHERF4_4, Q86UT5
# Sequence (Q86UT5 464-550): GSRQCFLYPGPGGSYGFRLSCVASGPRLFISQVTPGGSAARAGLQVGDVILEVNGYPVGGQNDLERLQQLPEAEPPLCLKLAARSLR
# Assay: holdup assay
# Design: key: below the threshold = too weak to quantify, mostly under pKd 3.1 to 4
# Details: plain residues with an end cap or a label only (N-terminal biotin on a linker: ado-ado)
row,Binder,pKd
1,"QSPPNIYYKV [EFNB3, Q15768]",below the threshold
2,"DSATVRTYSC [PPFIA1, Q13136]",below the threshold

# Target: NOS1, P29475
# Sequence (P29475 9-101): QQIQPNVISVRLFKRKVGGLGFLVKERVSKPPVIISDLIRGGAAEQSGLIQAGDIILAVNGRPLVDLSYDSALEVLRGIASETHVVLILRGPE
# Assay: holdup assay
# Design: key: below the threshold = too weak to quantify, mostly under pKd 3.1 to 4
# Details: plain residues with an end cap or a label only (N-terminal biotin on a linker: ado-ado)
row,Binder,pKd
1,"QSPPNIYYKV [EFNB3, Q15768]",3.53
2,"DSATVRTYSC [PPFIA1, Q13136]",below the threshold

# Target: PICK1, Q9NRD5
# Sequence (Q9NRD5 17-115): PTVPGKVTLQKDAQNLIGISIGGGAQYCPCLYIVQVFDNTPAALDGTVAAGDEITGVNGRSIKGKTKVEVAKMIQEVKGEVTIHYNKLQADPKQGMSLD
# Assay: holdup assay
# Design: key: below the threshold = too weak to quantify, mostly under pKd 3.1 to 4
# Details: plain residues with an end cap or a label only (N-terminal biotin on a linker: ado-ado)
row,Binder,pKd
1,"QSPPNIYYKV [EFNB3, Q15768]",below the threshold
2,"DSATVRTYSC [PPFIA1, Q13136]",4.15

# Target: T10, RAPGEF6, Q8TEU7
# Assay: holdup assay
# Design: key: below the threshold = too weak to quantify, mostly under pKd 3.1 to 4
# Details: plain residues with an end cap or a label only (N-terminal biotin on a linker: ado-ado)
row,Binder,pKd
1,"QSPPNIYYKV [EFNB3, Q15768]",below the threshold
2,"DSATVRTYSC [PPFIA1, Q13136]",below the threshold

# Target: T11, SNTB1, Q13884
# Assay: holdup assay
# Design: key: below the threshold = too weak to quantify, mostly under pKd 3.1 to 4
# Details: plain residues with an end cap or a label only (N-terminal biotin on a linker: ado-ado)
row,Binder,pKd
1,"QSPPNIYYKV [EFNB3, Q15768]",below the threshold
2,"DSATVRTYSC [PPFIA1, Q13136]",below the threshold

# Target: TJP1_3, Q07157
# Sequence (Q07157 416-512): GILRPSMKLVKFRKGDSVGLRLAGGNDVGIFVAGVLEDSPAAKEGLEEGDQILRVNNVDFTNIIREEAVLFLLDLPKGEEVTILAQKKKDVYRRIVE
# Assay: holdup assay
# Design: key: below the threshold = too weak to quantify, mostly under pKd 3.1 to 4
# Details: plain residues with an end cap or a label only (N-terminal biotin on a linker: ado-ado)
row,Binder,pKd
1,"QSPPNIYYKV [EFNB3, Q15768]",below the threshold
2,"DSATVRTYSC [PPFIA1, Q13136]",below the threshold

# Target: TJP2_1, Q9UDY2
# Sequence (Q9UDY2 24-128): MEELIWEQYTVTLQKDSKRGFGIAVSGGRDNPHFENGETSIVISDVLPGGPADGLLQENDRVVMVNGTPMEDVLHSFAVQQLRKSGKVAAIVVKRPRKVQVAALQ
# Assay: holdup assay
# Design: key: below the threshold = too weak to quantify, mostly under pKd 3.1 to 4
# Details: plain residues with an end cap or a label only (N-terminal biotin on a linker: ado-ado)
row,Binder,pKd
1,"QSPPNIYYKV [EFNB3, Q15768]",below the threshold
2,"DSATVRTYSC [PPFIA1, Q13136]",below the threshold

# Target: T12, TJP3_3, O95049
# Assay: holdup assay
# Design: key: below the threshold = too weak to quantify, mostly under pKd 3.1 to 4
# Details: plain residues with an end cap or a label only (N-terminal biotin on a linker: ado-ado)
row,Binder,pKd
1,"QSPPNIYYKV [EFNB3, Q15768]",below the threshold
2,"DSATVRTYSC [PPFIA1, Q13136]",below the threshold
